Source: paper PMC8878318, “DogCatcher allows loop-friendly protein-protein ligation” (Cell Chemical Biology, 2022)

Tests used:
Gre2p = biological target: T1, Gre2p (Saccharomyces cerevisiae, UniProt Q12068); assay: NADPH oxidation, absorbance at […] nm; type: biochemical; details: 1.5 mM isovaleraldehyde; 0.25 mM NADPH; 100 mM potassium phosphate pH 7.4; 25 °C
T1 construct: gene GRE2; wild-type Gre2p without loop insertion, pET28-Gre2p synthetic codon-optimised gene, expressed in E. coli BL21 DE3 RIPL, Ni-NTA purified
T1 sequence (Q12068 1-342): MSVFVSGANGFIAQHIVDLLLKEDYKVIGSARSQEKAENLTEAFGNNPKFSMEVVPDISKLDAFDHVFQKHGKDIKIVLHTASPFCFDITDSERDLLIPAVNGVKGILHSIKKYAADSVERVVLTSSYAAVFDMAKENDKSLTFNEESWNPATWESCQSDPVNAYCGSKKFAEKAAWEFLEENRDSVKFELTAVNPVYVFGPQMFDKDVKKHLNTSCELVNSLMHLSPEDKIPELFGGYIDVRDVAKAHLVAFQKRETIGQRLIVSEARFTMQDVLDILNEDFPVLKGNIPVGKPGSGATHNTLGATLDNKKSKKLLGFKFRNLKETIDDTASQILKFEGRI

[1] = biological target: Gre2p-DogTag Loop B (Saccharomyces cerevisiae | Streptococcus pneumoniae TIGR4) (UniProt Q12068); assay: isopeptide bond formation followed by SDS-PAGE with Coomassie densitometry; 5 μM of each protein in solution, PBS pH 7.5 (pH 7.4 in p-0004), 25°C; second-order rate constant from 1/[Catcher] against time
[2] = biological target: sfGFP-DogTag Loop A (Streptococcus pneumoniae TIGR4); assay: as above
[3] = biological target: AviTag-DogTag-MBP (Streptococcus pneumoniae TIGR4); assay: as above
[4] = biological target: HaloTag7SS-DogTag (Streptococcus pneumoniae TIGR4); assay: isopeptide bond formation followed by SDS-PAGE with Coomassie densitometry; reaction toward completion: 10 or 20 μM DogCatcher with 10 or 20 μM HaloTag7SS-DogTag, PBS pH 7.5, 25°C, 200 min
[5] = biological target: AviTag-R2Tag-MBP (Streptococcus pneumoniae TIGR4); assay: isopeptide bond formation followed by SDS-PAGE with Coomassie densitometry; 5 μM of each protein in solution, PBS pH 7.5 (pH 7.4 in p-0004), 25°C; second-order rate constant from 1/[Catcher] against time
[6] = biological target: Gre2p-SpyTag003 Loop B (Saccharomyces cerevisiae) (UniProt Q12068); assay: as above
sfGFP-SpyTag003 Loop A = assay: as above

With `NC(=O)C1=CN([C@@H]2O[C@H](COP(=O)(O)OP(=O)(O)OC[C@H]3O[C@@H](n4cnc5c(N)ncnc54)[C@H](OP(=O)(O)O)[C@@H]3O)[C@@H](O)[C@H]2O)C=CC1` [NADPH] the “NADPH oxidation, absorbance at 340 nm” value (Gre2p) was “Reduction of isovaleraldehyde to isoamyl alcohol by Gre2p is nicotinamide adenine dinucleotide phosphate (NADPH) dependent”.

For DogCatcher (designed binder), the second-order rate constant of covalent reaction [1] was 850 M⁻¹ s⁻¹, the second-order rate constant of covalent reaction [2] was 1000 M⁻¹ s⁻¹ and the second-order rate constant of covalent reaction [3] was 760 M⁻¹ s⁻¹. The percent of DogCatcher reacted (2-fold excess of HaloTag7SS-DogTag) [4] was 98% and the percent of HaloTag7SS-DogTag reacted (2-fold excess of DogCatcher) [4] was 98%.

R2Catcher (domain or fragment) gave a second-order rate constant of covalent reaction [5] of 3 M⁻¹ s⁻¹ and a second-order rate constant of covalent reaction [3] of 30 M⁻¹ s⁻¹.

With SpyCatcher003 (designed binder) the second-order rate constant of covalent reaction [6] was 156 M⁻¹ s⁻¹ and the second-order rate constant of covalent reaction (sfGFP-SpyTag003 Loop A) was 87 M⁻¹ s⁻¹.
